Laboratory results reported in article PMC11474037.

Biological target: insulin receptor (purified IR, consisting of α and β subunits) (human (cloned from HEK293T cells)) (UniProt P06213)
Assay: SPR

Substance: HtB-mNG (insulin B chain fused to mNeonGreen) (domain or fragment)
- Kd: 3.33 µM
